From publication PMC7419483, “Phenolic metabolism in the hornwort Anthoceros agrestis: 4-coumarate CoA ligase and 4-hydroxybenzoate CoA ligase” (Plant Cell Reports, 2020) come the findings set out here.

The target in series [1] is Aa4CL_1 (Anthoceros agrestis, UniProt A0A6M6A6J9). As to the kind of experiment: spectrophotometric CoA-ester formation, Michaelis-Menten. It is filed as biochemical. As to conditions: pH 7.0 potassium phosphate, 40 °C. The text has this:
spectrophotometric CoA-ester formation, Michaelis-Menten on Aa4CL_1

Substrate in series [2]: O=C(O)c1ccc(O)cc1
Description: purified protein. As to conditions: apparent Km, pH 7.0 potassium phosphate, 45 °C, standard assay […] ATP, […] MgCl2, 500 µM CoA, 1 mM DTT.

Substrate in series [3]: Nc1ncnc2c1ncn2[C@@H]1O[C@H](COP(=O)(O)OP(=O)(O)OP(=O)(O)O)[C@@H](O)[C@H]1O
As to the kind of experiment: purified protein. Particulars: pH 7.0 potassium phosphate, 45 °C, co-substrates 4-hydroxybenzoic acid and CoA, MgCl2, 1 mM DTT.

Substrate in series [4]: CC(C)(COP(=O)(O)OP(=O)(O)OC[C@H]1O[C@@H](n2cnc3c(N)ncnc32)[C@H](O)[C@@H]1OP(=O)(O)O)[C@@H](O)C(=O)NCCC(=O)NCCS
As to the kind of experiment: purified protein. It is filed as biochemical, Anthoceros agrestis. As to conditions: pH 7.0 potassium phosphate, 45 °C, co-substrates 4-hydroxybenzoic acid and ATP, MgCl2, 1 mM DTT.

The mark [5] stands for this setting: standard assay […] ATP, […] MgCl2, 500 µM CoA, 1 mM DTT.
The mark [6] stands for this setting: MgCl2, hydroxycinnamic acid co-substrate not stated.

Aa4CL_1, sequence (A0A6M6A6J9 entry or part of it): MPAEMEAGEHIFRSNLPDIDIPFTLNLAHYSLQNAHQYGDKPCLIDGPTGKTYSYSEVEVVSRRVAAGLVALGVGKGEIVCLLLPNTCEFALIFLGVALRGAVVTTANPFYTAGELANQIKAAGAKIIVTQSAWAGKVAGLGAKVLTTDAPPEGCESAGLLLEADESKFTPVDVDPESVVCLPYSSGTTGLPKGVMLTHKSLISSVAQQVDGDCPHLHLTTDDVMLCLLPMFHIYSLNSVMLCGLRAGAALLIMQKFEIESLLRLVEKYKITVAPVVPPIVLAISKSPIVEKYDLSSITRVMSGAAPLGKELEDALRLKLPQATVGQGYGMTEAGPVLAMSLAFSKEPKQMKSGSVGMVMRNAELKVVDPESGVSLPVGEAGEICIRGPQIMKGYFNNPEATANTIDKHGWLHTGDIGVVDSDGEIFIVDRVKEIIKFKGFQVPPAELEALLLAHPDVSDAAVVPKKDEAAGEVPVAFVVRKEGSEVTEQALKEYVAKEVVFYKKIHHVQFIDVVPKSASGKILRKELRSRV

Take `O=C(O)/C=C/c1ccccc1` [cinnamic acid]: the Km in series [1] (setting [5]) was 218 ± 74.7 µM.

Consider `O=C(O)/C=C/c1ccc(O)cc1` [4-coumaric acid], for which, in series [1] (setting [5]), the Km was found to be 12.8 ± 4 µM.

Regarding `COc1ccc(/C=C/C(=O)O)cc1O` [isoferulic acid], the Km in series [1] (setting [5]) is 9.9 ± 1.8 µM.

For the molecule `Nc1ncnc2c1ncn2[C@@H]1O[C@H](COP(=O)(O)OP(=O)(O)OP(=O)(O)O)[C@@H](O)[C@H]1O` [ATP], the Km in series [1] (setting [6]) was determined as 227 ± 31.8 µM.

On to `COc1cc(/C=C/C(=O)O)ccc1O` [ferulic acid], for which the Km in series [1] (setting [5]) stood at 61.4 ± 21.9 µM.

As to `O=C(O)/C=C/c1ccc(O)c(O)c1` [caffeic acid], in series [1] (standard assay […] ATP, […] MgCl2, 500 µM CoA, no DTT), the Km was determined as 15.5 ± 1.9 µM.

Turning to `CC(C)(COP(=O)(O)OP(=O)(O)OC[C@H]1O[C@@H](n2cnc3c(N)ncnc32)[C@H](O)[C@@H]1OP(=O)(O)O)[C@@H](O)C(=O)NCCC(=O)NCCS` [CoA], in series [1] (setting [6]), the Km amounted to 10.2 ± 0.2 µM.

B1: Aa4HBCL (Anthoceros agrestis) (protein)
chain: MASLSEPEHIFRSSLPAAAIPNVTVPEYILLNAIRPEDEHRVAVVDASDERQYTYGQTRILVKNVAAGLRNLLGIRKGDVVFVLLPNTAEYFILVLGIMWAGGVYSGGNPYAHPGEIEKQIQDSEAKVVVTDSTYFEKVKQFAHQLPILLTPVSSAAPTDKSVTPNPEGSTSVQRLLEYDGSEYVPPEPISQDDLCALPYSSGTTGLSKGVKLTHRNLLANTTRTCPIPAVPPTPAQLASVKRYVVLGLLPFFHIYGTTGICCSTMRYQGTLVVLPRYDLRLMLAALIKYEVTFTPLVPPIILQMVKSPIVNEFDLSKLKLEGVMTAAAPLPPDIQKAFEARFPGVELRQAYGLTEYSCITLSHVPLGYPRGNAKKGSVGFLIPGTEMKILDPDTGKSLPANRAGEICVRGESTMNGYFKNEEATAATIDEQGWLHTGDVGYIDDDGDVFIVERAKELIKYKGFQVPPAELEAILVAHPLIADAAVIPIPDDEAGELPAACVVLAPNSHLNEEDVIRYVGAKVASYKKVRHVEFVSSIPKSLSGKTLRRVLKDDILKRLKKTENQLI
Consider B1, for which, in series [2], the Km is on record as 664.2 ± 1.5 µM, the Vmax amounted to 0.99 µmol/min/mg, the kcat came out at 1.1 s⁻¹ and the specificity constant (kcat/Km) came out at 1700 M⁻¹ s⁻¹. Also, in series [3], the Km came to 1175.3 ± 135.2 µM, the Vmax came out at 1.4 µmol/min/mg, the kcat stood at 1.6 s⁻¹ and the kcat/Km is 1300 M⁻¹ s⁻¹. Moreover, in series [4], the Km was found to be 247.8 ± 19.9 µM, the Vmax worked out at 1.95 µmol/min/mg, the kcat amounted to 2.2 ± 0.1 s⁻¹ and the kcat/Km came out at 8700 M⁻¹ s⁻¹.

By Km is commonly meant the concentration of substrate that gives half-maximal velocity. In general, Vmax refers to the top rate of the reaction or transport when substrate is in excess. In general, kcat refers to the maximal rate divided by the concentration of active sites. Broadly, the kcat/Km is the turnover number divided by the Michaelis constant.
